Test results taken from paper PMC5734868 (ACS infectious diseases, 2017).

Biological target: the molecule itself
Assay: SDS-PAGE of semi-denatured protein

B1: M. tuberculosis aspartate decarboxylase PanD, wild type (enzyme)
chain: MLRTMLKSKIHRATVTCADLHYVGSVTIDADLMDAADLLEGEQVTIVDIDNGARLVTYAITGERGSGVIGINGAAAHLVHPGDLVILIAYATMDDARARTYQPRIVFVDAYNKPIDMGHDPAFVPENAGELLDPRLGVG
**Q.** Does B1 bind?
**A.** binds
